{"source": "patent US20130243767A1", "target": "CD32 (FcγRII) on human plasmacytoid dendritic cells (human) (UniProt P12318)", "sequence (P12318 34-317)": "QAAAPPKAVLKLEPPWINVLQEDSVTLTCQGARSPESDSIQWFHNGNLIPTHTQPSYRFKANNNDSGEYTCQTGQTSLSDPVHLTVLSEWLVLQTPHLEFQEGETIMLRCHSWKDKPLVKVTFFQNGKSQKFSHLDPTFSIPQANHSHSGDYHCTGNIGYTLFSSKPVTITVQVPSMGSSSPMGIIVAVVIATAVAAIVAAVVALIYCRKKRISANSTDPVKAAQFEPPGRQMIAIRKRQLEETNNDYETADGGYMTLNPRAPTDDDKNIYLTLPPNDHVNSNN", "assay": "cell-based or functional assay", "note": "Ends that are not written are not given here."}
{"binder": "ADGAWAWVWLTETAVGAAK-biotin", "note": "[aCD32a peptide published by Berntzen et al, …-biotin]", "values": [{"measurement": "IL-6 production of pDCS in PBMC after stimulation with CPG-C", "value": 75, "unit": "times"}, {"measurement": "TNFα induction in PBMC after stimulation with CPG-C", "value": 3, "unit": "times"}]}
